The values below come from US20230416361A1.

Assay [1] addresses human CD200R expressed on cells (human) (UniProt Q8TD46). The assay can be described thus: flow cytometry on Jurkat T cells expressing human CD200R, 24 h at 37 C, PE anti-hIgG secondary. A general note: A flow cytometer gives signals particle by particle.
The target is the same in assay [2]. The experiment in a line: flow cytometry on Jurkat T cells lentivirally expressing human CD200R, 24 h at 37 C, PE anti-hIgG secondary antibody, geometric MFI, non-linear curve fit.
For assay [3] the target is unchanged.
Assay [4] has the same target. The experiment in a line: cell-based or functional assay.
Assay [5] concerns the target extracellular domain of human CD200R (Met29-Leu243) (human) (UniProt Q8TD46). The assay can be described thus: SPR (Biacore), antibody captured by anti-human Fc, CD200R extracellular domain injected, single cycle kinetics, 25 C. (In general: In SPR one partner is held on a chip, and binding of the other changes the refractive index at the surface.)

B1: Antibody I-4P (antibody, human IgG4 S228P, kappa, V domains shown)
VH: QVQLVQSGAEVKKPGASVKVSCKASGFSFSSGYYMAWVRQAPGQGLEWMGLIGVGSGSLWYAQKFQGRVTMTRDTSTSTVYMELSSLRSEDTAVYYCARHFALSDPFNLWGQGTLVTVSS
VL: EIVLTQSPDFQSVTPKEKVTITCQASESIDSYLLWYQQKPDQSPKLLIKQASTLASGVPSRFSGSGSGTDFTLTINSLEAEDAATYYCQNYYDISSNDFGGGTKVEIKR
The EC50 is the concentration needed to bring the measured effect to its halfway point. Read a low EC50 as an effect from little substance. B1: the EC50 in assay [1] stood at 3.4 nM. Besides, the EC50 in assay [2] is 3.43 nM. This molecule also gave an EC50 of DOK2 recruitment to CD200R, enzyme fragment complementation luminescence, PathHunter Jurkat CD200R cells co-cultured with FcgRIIb-expressing HEK293 cells in assay [3] of 1140 pM. In assay [4], this molecule came in with an Average % inhibition of SEAP activity at Log [Antibody], M = -8.18 of 22.3%; an Average % inhibition of SEAP activity at Log [Antibody], M = -8.8 of 20.9%; an Average % inhibition of SEAP activity at Log [Antibody], M = -9.57 of 16.1%; an Average % inhibition of SEAP activity at Log [Antibody], M = -10.27 of 7.7%. In assay [4], the Average % inhibition of SEAP activity at Log [Antibody], M = -10.9 is 3.2%; the Average % inhibition of SEAP activity at Log [Antibody], M = -11.6 was 2.2%; the Average % inhibition of SEAP activity at Log [Antibody], M = -12.3 is 3.1%; the EC50 of Dok2 recruitment to human CD200R (enzyme fragment complementation, PathHunter Jurkat CD200R cells co-cultured with FcγRIIb HEK293 cells) was found to be 1.1 nM. Moreover, in assay [4], the IC50 of inhibition of NF-kB-inducible SEAP reporter activity in CD200R-expressing THP-1 dual cells was found to be 0.134 nM and the average maximal percentage inhibition (Emax) of SEAP activity was 19.9%.

B2: anti-CD200R antibody clone 21.3.1 (mIgG1k isotype) (antibody, V domains shown)
VH: QVQLQQPGSELVRPGASVKLSCKASGHTFTSYWMHWVKQRPGQGLEWIGNIYPGSGSINYDEKFKSKAKLTVDTSSRTAYMQLSSLTSEDSAVYYCLTMTGTSWGQGTLVTVSA
VL: DVQMIQSPSSLSASLGDIVTMTCQASQGTPINLHWFQQKPGKAPKLLISGASNLEDGVPSRFSGSRYGTAFTLTISSLEDEDMATYFCLQFTYIPWTFGGGTKLEIKR
As to B2, in assay [4], the Average % inhibition of SEAP activity at Log [Antibody], M = -8.18 amounted to 35.3%; the Average % inhibition of SEAP activity at Log [Antibody], M = -8.8 came out at 28.3%; the Average % inhibition of SEAP activity at Log [Antibody], M = -9.57 worked out at 23.4%; the Average % inhibition of SEAP activity at Log [Antibody], M = -10.27 is 9.8%. In assay [4], this molecule yielded an Average % inhibition of SEAP activity at Log [Antibody], M = -10.9 of 1.1%; an Average % inhibition of SEAP activity at Log [Antibody], M = -11.6 of 1%; an Average % inhibition of SEAP activity at Log [Antibody], M = -12.3 of 1.7%; an IC50 of inhibition of NF-kB-inducible SEAP reporter activity in CD200R-expressing THP-1 dual cells of 0.141 nM. In assay [4], this molecule yielded an average maximal percentage inhibition (Emax) of SEAP activity of 33.2%.

B3: hu2131_Q1E_M99G hIgG1k P238D (antibody, V domains shown)
VH: EVQLVQSGAEVKKPGASVKVSCKASGHTFTSYWMHWVRQAPGQGLEWMGNIYPGSGSINYDEKFQGRVTMTADTSTSTVYMELSSLRSEDTAVYYCLTGTGTSWGRGTLVTVSS
VL: DIQMTQSPSSLSVSVGDRVTITCQASQGTPINLHWFQQKPGKAPKLLISGASNLESGVPSRFSGSGSGTEFTFTISSLQPEDAATYYCLQFTYIPWTFGQGTKLEIKR
What is called Kd is the free concentration of one partner at which half of the binding sites on the other are occupied at equilibrium, for simple one-to-one binding. A lower Kd goes with higher affinity. In general, koff refers to the rate constant with which the complex falls apart. As a reminder, the kon is a measure of how fast the partners come together. Low readings indicate slow association, high ones fast association. Molecule B3 showed an EC50 in assay [1] of 0.53 nM. Besides, in assay [5], the Kd is below 0.0193 nM, the koff was below 1e-05 s⁻¹ and the kon stood at 517000 M⁻¹ s⁻¹. In addition, the EC50 of DOK2 recruitment to CD200R, enzyme fragment complementation luminescence, PathHunter Jurkat CD200R cells co-cultured with FcgRIIb-expressing HEK293 cells in assay [3] was 437 pM. This molecule also registered an EC50 of Dok2 recruitment to human CD200R (enzyme fragment complementation, PathHunter Jurkat CD200R cells co-cultured with FcγRIIb HEK293 cells) in assay [4] of 0.44 nM.
